Several values for one entry are separate records, joined by “and”; a condition that tells them apart may be missing. Equal values may be shown once. Read-outs that look alike come from different tables or passages of the source. Values belong to the molecule of their own block, whether it stands above or below them.
Columns and labels:
GDNF [1] = target: T1, GDNF (Homo sapiens, UniProt P39905); test: SPR: direct binding of heparin or desulfated heparins to GDNF cuvette
T1 construct: purchased PeproTech, Ltd. or R&D Systems, Inc
T1 sequence (P39905 78-211 limits assumed): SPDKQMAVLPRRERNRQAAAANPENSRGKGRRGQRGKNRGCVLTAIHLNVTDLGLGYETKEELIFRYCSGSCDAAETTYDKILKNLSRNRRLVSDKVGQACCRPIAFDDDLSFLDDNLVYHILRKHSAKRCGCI
Experimental: (§1) Specifically desulfated heparins (Takano et al., 1998) were used to assess the involvement of different sulfate groups in the GDNF-heparin interaction by following direct binding to GDNF cuvette, or by competing out GDNF binding to the heparin-BSA cuvette. Dissociation constants were determined from direct binding using increasing GDNF concentrations and by fitting the data to R=(Rmax*C)/(Kd+C) for heparin. For desulfated heparins, the best fit was achieved using equation R=(Rmax1*C)/(Kd1+C)+(Rmax2*C)/(Kd2+C), where Kd1 and Kd2 are apparent dissociation constants derived for two heparin sites of different affinities with maximum equilibrium response Rmax1 and Rmax2, respectively.

GDNF [2] = target: T1, GDNF; test: SPR: competition of GDNF binding to heparin-BSA cuvette by heparin and desulfated heparins; settings: competing out GDNF binding to heparin-BSA cuvette
Experimental: as §1

SHEP cells = test: SHEP cell adhesion and spreading assay on immobilized proteins; assay type: cell-based, human; settings: for adherence and spreading of SHEP cells on immobilized protein: protein immobilized on plastic microplate
Experimental: Cell adhesion assays were essentially performed as described elsewhere (Weinacker et al., 1994). To prepare protein-coated surfaces the protein of interest (10 μg/ml in PBS) was applied to 96-well ELISA (Greiner) plates or to glass cover slips for 12-18 hours at +4° C. After incubation, the surfaces were washed with PBS and blocked with 1% globulin-free BSA for two hours. Some GDNF coated surfaces were incubated with 20 μg/ml of G-90 (Amgen) GDNF function-blocking antibodies (Xu et al., 1998) for 2 hours at room temperature.
Subconfluent SHEP cells were harvested in PBS supplemented with 10 mM EDTA for 5 min at 37° C. Cells were washed with incubation buffer (RPMI 1640, 0.2% BSA, 15 mM HEPES pH 7.2) and 10000-40000 cells/well plated on the protein coated surface. Plates were centrifuged for 5 min at 10 g and incubated for one hour at 37° C. in 5% CO2. After incubation cells were washed with PBS, fixed with methanol supplemented with crystal violet for 15 min at room temperature and washed again with PBS. The remaining cells were counted using a Leica DMIRB inverted microscope with 10× objective in 5 fields per well.
Some cells were pretreated with heparinase III, PI-PLC (see above), 0.3 U/ml chodroitinase ABC for one hour at 37° C., 5% CO2, or with 20 μg/ml of NCAM blocking antibodies (AB5032, Chemicon Inc.) for 15-30 min on ice.
After one hour of incubation in serum-free medium unattached cells were removed by washing. The remaining cells were stained and counted on Leica DMIRB inverted microscope with a 10× objective in 5 fields per well and the resulting cell number was calculated for the whole well.
Live SHEP cells spreading on immobilized GDNF were imaged for 20 minutes using the Till imaging system with an Imago-QE digital camera (Till Photonics) equipped with heating (+37° C.) and CO2 supply (5%) chambers.

[3] = tested on: rat embryonic hippocampal neurons; test: Neurite outgrowth assay in E17 rat hippocampal neurons; assay type: cell-based; settings: E17 rat hippocampal neurons
Experimental: Hippocampi were dissected from E17 embryonic rat brains under the microscope and transferred to the preparation media (HBBS without Ca^2+ and Mg^2+ supplemented with 1 mM sodium pyruvate (Gibco) and buffered by 10 mM Hepes pH 7.2), then partially digested by papain and triturated in the preparation media supplemented with DNase I. Cells were washed with HBBS containing Ca^2+ and Mg^2+ and transferred to the growth media (Neurobasal media with B27 supplement, 2 mM L-glutamine, 25 μM glutamic acid and penicillin and streptomycin (Gibco)). For enzymatic treatments neurons were kept in the growth media supplemented with 0.2% BSA at +37° C. for one hour. After the treatment cells in the same media were seeded on the protein-coated cover slips (see above) and after 10 min, the media was changed for B27-free media. Neurons were incubated at +37° C., 5% CO2 for 18 hours.
For immunocytochemistry neurons were washed with PBS and fixed with 4% PFA, permeabilized with 0.1% Triton X-100 and stained with rabbit polyclonal antiserum to Protein Gene Product 9.5 (Affiniti), neuron-specific Class III tubulin-βIII clone Tuj1 antibodies (BABCO) or with antibodies against the neurofilament triplet, 13AA8 (Arumäe et al., 1993). Secondary antibodies were goat anti-rabbit or anti-mouse Alexa488-conjugated (Molecular Probes).
The immunostained cultures were viewed using the ×20 objective of a Zeiss Axioplan 2 fluorescent microscope (Zeiss). Neurons with at least two times longer than cell body diameter processes were considered process-bearing. Three cover slips were used in parallel and 100 neurons per cover slip were counted. Results were derived from 3 to 5 independent experiments.

[4] = SPR (IAsys): heparin interaction with GFLs cuvette; assay type: binding; settings: for ka (×10^−5) (M^−1s^−1) / kdis: heparin in solution; for Kd = kdis/ka: from dynamics
Experimental: (§2) The affinities of GFLs for heparin and heparin-like molecules (e.g. syndecan-3) were determined by plasmon surface resonance using the IAsys system (Affinity Sensors, Cambridge, UK). Planar aminosilane cuvettes (Affinity Sensors) were used for protein coupling to avoid problems with mass transport, which occur frequently with matrix surfaces. In the initial approach, heparin-BSA was immobilized to the cuvette surface using the manufacturer's instructions and different ligand concentrations were used to determine association (ka) and dissociation (kdis) rates using the IAsys Fastfit software. The dissociation constant Kd was determined from the binding dynamics as […], or from equilibrium response (R) using a simple Langmuir fit: R=(Rmax*C)/(Kd+C), where C is the ligand concentration. […] The dissociation constants were determined from binding dynamics and equilibrium response. The same cuvettes were used to test binding of heparan sulfate proteoglycan syndecan-3, which was purified as an ectodomain from early postnatal rat brains by HB-GAM affinity chromatography (Raulo et al., 1994).
(§3) Binding was analyzed using IAsys cuvettes with immobilized heparin-BSA or GFLs. The dissociation constant Kd was determined from dynamics of association and dissociation (Kd=kdis/ka), or from equilibrium response R (R=(Rmax*C)/(Kd+C), where C is ligand concentration).

[5] = Binding of ^125I-labeled GFLs to heparin-sepharose column, step NaCl elution; settings: for NaCl concentration at elution from heparin-sepharose column: ^125I-GFLs, step NaCl gradient; for binding to heparin-sepharose column: ^125I-labeled GFLs
Experimental: GFL iodination was performed as described (Lindahl et al., 2001). Heparin-sepharose column (Amersham Biosciences) chromatography was performed to assess GFL binding to heparin. GDNF, ARTN, NRTN and PSPN were purchased from PeproTech, Ltd. or R&D Systems, Inc. GFLs were enzymatically labeled with carrier-free [^125I]NaI (Amersham Biosciences) by the lactoperoxidase method to a specific activity of 100000-200000 cpm/ng as described elsewhere (Lindahl et al., 2001). 15000-20000 cpm of iodinated GFLs, together with 10 μg of the same unlabeled protein as a carrier, were injected into a 1 ml heparin-sepharose column (Amersham Biosciences) in phosphate buffer pH 7.2 containing 100 mM NaCl and 10 mg/ml of BSA. After washing with 5 volumes of the same buffer, iodinated GFLs were eluted from the column by step elution (2 ml) with increasing NaCl concentration. The resulting fractions were counted on Rackbeta 1214 (LKB/Wallac) scintillation counter.

[6] = SPR (IAsys): GFLs interaction with heparin-BSA cuvette; assay type: binding; settings: for ka (×10^−5) (M^−1s^−1) / kdis: GFL in solution; for Kd = kdis/ka: from dynamics; for Kd: from equilibrium response
Experimental: as §2, §3

syndecan-3 ectodomain = target: T2, syndecan-3 ectodomain (Rattus norvegicus, UniProt P33671); test: SPR (IAsys): syndecan-3 ectodomain interaction with GFLs cuvette; assay type: binding; settings: syndecan-3 ectodomain in solution
T2 construct: purified as an ectodomain from early postnatal rat brains; from tissue; host or cells: early postnatal rat brain
T2 sequence (P33671 45-387 limits assumed): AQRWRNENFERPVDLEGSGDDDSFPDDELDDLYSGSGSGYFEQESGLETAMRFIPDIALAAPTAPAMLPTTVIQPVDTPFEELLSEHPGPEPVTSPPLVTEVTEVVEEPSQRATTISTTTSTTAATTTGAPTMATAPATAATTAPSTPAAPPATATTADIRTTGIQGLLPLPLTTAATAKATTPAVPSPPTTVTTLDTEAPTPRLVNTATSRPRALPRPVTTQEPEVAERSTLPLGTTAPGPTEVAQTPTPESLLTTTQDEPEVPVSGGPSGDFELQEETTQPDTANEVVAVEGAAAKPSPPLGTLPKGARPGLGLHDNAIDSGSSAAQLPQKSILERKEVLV
Experimental: as §2, §3

GDNF-syndecan-3 complex = target: T3, GDNF-syndecan-3 complex (UniProt P33671+P39905); test: Chemical cross-linking of ^125I-GDNF to C6 cells and immunoprecipitation with anti-syndecan-3; assay type: cell-based, rat; settings: heparin 1 μg/ml; HB-GAM 150-fold molar excess; added with ^125I-GDNF
T3 construct: the rat glioma C6 cell line, which expresses syndecan-3; endogenous in cells; host or cells: rat glioma C6 cells (syndecan-3); GDNF purchased from PeproTech or R&D Systems and iodinated
T3 sequence (P33671 45-442, one chain of several): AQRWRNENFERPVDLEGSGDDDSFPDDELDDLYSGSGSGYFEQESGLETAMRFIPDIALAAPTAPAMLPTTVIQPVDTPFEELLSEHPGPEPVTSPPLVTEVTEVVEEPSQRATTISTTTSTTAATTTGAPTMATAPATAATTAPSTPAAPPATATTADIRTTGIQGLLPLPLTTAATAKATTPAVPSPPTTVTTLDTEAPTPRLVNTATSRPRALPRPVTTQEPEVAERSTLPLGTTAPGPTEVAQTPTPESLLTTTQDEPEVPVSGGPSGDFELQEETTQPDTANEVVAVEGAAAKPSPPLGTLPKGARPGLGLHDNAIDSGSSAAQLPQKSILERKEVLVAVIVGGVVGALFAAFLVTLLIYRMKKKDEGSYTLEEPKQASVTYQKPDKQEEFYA
Experimental: Glioma C6 cells were plated on 6-well plates and grown to 70% confluency. Cells were incubated with 1 nM ^125I-GDNF for 2 hours in binding buffer (Dulbecco's modified Eagle's medium, 0.2% BSA and 15 mM Hepes, pH 7.2) on ice. Unbound ligand was removed by washing three times with ice-cold PBS. The chemical cross-linker ethyl-dimethyl-aminopropyl-carbodimide (EDAC) supplemented with N-hydroxysuccinimide (NHS) (Sigma) was incubated with cells for 20 min at room temperature in PBS. The reaction was quenched with TBS for 15 min and cells were lysed in lysis buffer (TBS, 1% Triton X-100, 1% NP-40, 2 mM EDTA, 1 mM PMSF and Complete protease inhibitor mixture from Roche Molecular Biochemicals). Cell lysates were immunoprecipitated with anti-syndecan-3 antibodies (Nolo et al., 1995) and resolved on 7.5% SDS-PAGE. Autoradiography was performed with BAS1500 (Fuji). For heparinase III or PI-PLC treatment cells were incubated with 10 mU/ml heparinase III or with 1 U/ml PI-PLC, respectively for one hour at 37° C., 5% CO2 before ^125I-GDNF addition.

[7] = apparent Kd from equilibrium response, read-out: Kd1
[8] = apparent Kd of second site, two-site fit, read-out: Kd2
[9] = pretreatment of cells with SFK inhibitor
[10] = GFLs cuvette, from equilibrium response, read-out: Kd (equilibrium)

Kd (GDNF [1]; [7]): 35.4 ± 7.5 nM
Kd (GDNF [1]; [8]): 9500 nM
IC50 (GDNF [2]): 4.3 ng/mL
Molecule: 2-O-desulfated heparin

Kd (GDNF [1]; [7]): 36.3 ± 4.6 nM
Kd (GDNF [1]; [8]): 18000 nM and 18100 nM
IC50 (GDNF [2]): 1.3 ng/mL
Molecule: 6-O-desulfated heparin

Molecule: CN(C)S(=O)(=O)c1ccc2c(c1)/C(=C/c1cc3c([nH]1)CCCC3)C(=O)N2 [SU6656, reference compound]
effect on SHEP cell adherence on immobilized GDNF (SHEP cells; [9]): did not impair their adherence
effect on SHEP cell spreading on immobilized GDNF (SHEP cells; [9]): diminished their spreading
effect of inhibitor on neurite outgrowth on immobilized GDNF [3]: prevented neurite outgrowth

Kd = kdis/ka ([4]; GFLs cuvette): 44.7 ± 12.3 nM
Kd [4, 10]: 13 ± 3.9 nM
NaCl concentration at elution from heparin-sepharose column [5]: 1 to 1.5 M
binding to heparin-sepharose column [5]: bind strongly to heparin
Kd = kdis/ka [6]: 148 ± 39 nM
Kd [6]: 187 ± 34 nM
ka (×10^−5) (M^−1s^−1) (syndecan-3 ectodomain): 6.3 ± 0.7 (×10^−5) M^−1s^−1
Molecule: ARTN: artemin, secreted growth factor, GDNF family ligand
ka (×10^−5) (M^−1s^−1) ([4]; GFLs cuvette): 8.0 (×10^−5) M^−1s^−1
kdis ([4]; GFLs cuvette): 0.042 s⁻¹
adherence and spreading of SHEP cells on immobilized protein (SHEP cells): induced adherence and spreading
ka (×10^−5) (M^−1s^−1) [6]: 0.09 (×10^−5) M^−1s^−1
kdis [6]: 0.0013 s⁻¹

Kd (GDNF [1]; [7]): 29.1 ± 6.4 nM
Kd (GDNF [1]; [8]): 11400 nM
IC50 (GDNF [2]): 2.3 ng/mL
Molecule: N-desulfated heparin

Kd = kdis/ka ([4]; GFLs cuvette): 114 ± 44 nM
Kd [4, 10]: 23.7 ± 7.7 nM
Kd ([4]; SPR, dynamics, read-out: dynamics-derived Kd for heparin): > 100 nM
NaCl concentration at elution from heparin-sepharose column [5]: 1.5 M
binding to heparin-sepharose column [5]: bind strongly to heparin
Kd = kdis/ka [6]: 59.4 ± 6.2 nM
Kd [6]: 47 ± 7 nM
ka (×10^−5) (M^−1s^−1) (syndecan-3 ectodomain): 7.5 ± 1.6 (×10^−5) M^−1s^−1
B1: NRTN: neurturin, secreted growth factor, GDNF family ligand (protein)
chain: ARLGARPCGLRELEVRVSELGLGYASDETVLFRYCAGACEAAARVYDLGLRRLRQRRRLRRERVRAQPCCRPTAYEDEVSFLDAHSRYHTVHELSARECACV
ka (×10^−5) (M^−1s^−1) ([4]; GFLs cuvette): 1.9 (×10^−5) M^−1s^−1
kdis ([4]; GFLs cuvette): 0.022 s⁻¹
adherence and spreading of SHEP cells on immobilized protein (SHEP cells): induced adherence and spreading
ka (×10^−5) (M^−1s^−1) [6]: 3.2 (×10^−5) M^−1s^−1
kdis [6]: 0.018 s⁻¹

effect on ^125I-GDNF binding to syndecan-3 on C6 cells (GDNF-syndecan-3 complex): displaced
B2: HB-GAM: ECM molecule, another syndecan-3-specific ligand (protein)
chain: GKKEKPEKKVKKSDCGEWQWSVCVPTSGDCGLGTREGTRTGAECKQTMKTQRCKIPCNWKKQFGAECKYQFQAWGECDLNTALKTRTGSLKRALHNADCQKTVTISKPCGKLTKPKPQAESKKKKKEGKKQEKMLD

Kd ([4]; SPR, dynamics, read-out: Kd for heparin (dynamics)): 29100 nM
Kd ([4]; SPR, equilibrium, read-out: Kd for heparin (equilibrium)): 11100 nM
NaCl concentration at elution from heparin-sepharose column [5]: 0.5 M
binding to heparin-sepharose column [5]: does not
Kd = kdis/ka [6]: 1072 ± 118 nM
Kd [6]: > 1000 nM
B3: PSPN: persephin, secreted growth factor, GDNF family ligand (protein)
chain: ALSGPCQLWSLTLSVAELGLGYASEEKVIFRYCAGSCPRGARTQHGLALARLQGQGRAHGGPCCRPTRYTDVAFLDDRHRWQRLPQLSAAACGCGG
ka (×10^−5) (M^−1s^−1) ([4]; GFLs cuvette): 0.02 (×10^−5) M^−1s^−1
kdis ([4]; GFLs cuvette): 0.064 s⁻¹
adherence and spreading of SHEP cells on immobilized protein (SHEP cells): failed to adhere and spread
ka (×10^−5) (M^−1s^−1) [6]: 0.87 (×10^−5) M^−1s^−1
kdis [6]: 0.093 s⁻¹
neurite outgrowth on immobilized protein ([3]; 18 hours): failed to form processes
